# Results reported in IntAct's records for PubMed 23858060.
# B1: Galactose/lactose metabolism regulatory protein GAL80 (Saccharomyces cerevisiae), P04387 (parent)
# chain: MDYNKRSSVSTVPNAAPIRVGFVGLNAAKGWAIKTHYPAILQLSSQFQITALYSPKIETSIATIQRLKLSNATAFPTLESFASSSTIDMIVIAIQVASHYEVVMPLLEFSKNNPNLKYLFVEWALACSLDQAESIYKAAAERGVQTIISLQGRKSPYILRAKELISQGYIGDINSIEIAGNGGWYGYERPVKSPKYIYEIGNGVDLVTTTFGHTIDILQYMTSSYFSRINAMVFNNIPEQELIDERGNRLGQRVPKTVPDHLLFQGTLLNGNVPVSCSFKGGKPTKKFTKNLVIDIHGTKGDLKLEGDAGFAEISNLVLYYSGTRANDFPLANGQQAPLDPGYDAGKEIMEVYHLRNYNAIVGNIHRLYQSISDFHFNTKKIPELPSQFVMQGFDFEGFPTLMDALILHRLIESVYKSNMMGSTLNVSNISHYSL
# partner: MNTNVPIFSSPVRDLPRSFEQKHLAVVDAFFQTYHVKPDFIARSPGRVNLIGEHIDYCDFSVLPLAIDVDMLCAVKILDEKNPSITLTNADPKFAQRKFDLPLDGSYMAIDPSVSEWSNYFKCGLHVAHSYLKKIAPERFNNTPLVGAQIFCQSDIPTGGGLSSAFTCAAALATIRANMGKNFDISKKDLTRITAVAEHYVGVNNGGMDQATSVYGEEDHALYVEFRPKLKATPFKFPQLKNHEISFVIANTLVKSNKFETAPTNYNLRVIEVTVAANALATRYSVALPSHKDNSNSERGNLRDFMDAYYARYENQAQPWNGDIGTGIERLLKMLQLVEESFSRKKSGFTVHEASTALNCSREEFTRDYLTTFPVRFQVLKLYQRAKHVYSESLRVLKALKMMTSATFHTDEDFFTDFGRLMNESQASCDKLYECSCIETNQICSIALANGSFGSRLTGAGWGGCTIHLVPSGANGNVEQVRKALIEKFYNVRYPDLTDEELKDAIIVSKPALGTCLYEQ
# Variants of: B1
# Conditions: with gal3_yeast GAL3, P13045
row,effect of a mutation on the interaction,Variant
1,with no effect,MDYNKRSSVSTVPNAAPIRVGFVGLNAAKGWAIKTHYPAILQLSSQFQITALYSPKIETSIATIQRLKLSNATAFPTLESFASSSTIDMIVIAIQVASHYEVVMPLLEFSKNNPNLKYLFVEWALACSLDQAESIYKAAAERGVQTIISLQGRKSPYILRAKELISQGYIGDINSIEIAGNGGWYGYERPVKSPKYIYEIGNGVDLVTTTFGHTIDILQYMTSSYFSRINAMVFNNIPEQELIDERGNRLGQRVPKTVPDHLLFQGTLLNGNVPVSCSFKGGKPTKKFTKNLVIDIHGTKGDLKLEGDAGFAEISNLVLYYSGTRANDFPLANGQQAPLDPGYDAGKEIMKVYHLRNYNAIVGNIHRLYQSISDFHFNTKKIPELPSQFVMQGFDFEGFPTLMDALILHRLIESVYKSNMMGSTLNVSNISHYSL [E351K]
